Assay results published in FireProtDB (doi:10.1046/j.1432-1327.1999.00491.x).
“And” between values parts separate entries of the source, which are not always exact repeats. Identical values can stand only once.

Settings: Enterobacteria phage 434, Thermal, DSC, reversible: yes, whole UniProt chain shown; for unfolding free energy: 25 °C
[1] = pH 2, glycine 20 mM, NaCl 200 mM
[2] = pH 3, glycine 20 mM, NaCl 200 mM
[3] = pH 4, Sodium acetate 20 mM, NaCl 200 mM
[4] = pH 4.5, Sodium acetate 20 mM, NaCl 200 mM

B1: Regulatory protein cro wild type, P03036 (protein)
chain: MQTLSERLKKRRIALKMTQTELATKAGVKQQSIQLIEAGVTKRPRFLFEIAMALNCDPVWLQYGTKRGKAA
unfolding free energy [1]: 1.17 kcal/mol
unfolding free energy (pH 2, glycine 20 mM): 0.22 kcal/mol
Tm [1]: 38.3 °C and 39.4 °C and 35.6 °C
unfolding enthalpy (calorimetric) [1]: 33.5 kcal/mol and 33.9 kcal/mol and 34.2 kcal/mol
unfolding enthalpy (calorimetric) (pH 2, glycine 20 mM): 24.1 kcal/mol and 27.5 kcal/mol and 22.2 kcal/mol
unfolding free energy [2]: 2.27 kcal/mol
unfolding free energy (pH 3, glycine 20 mM): 2.58 kcal/mol
unfolding enthalpy (calorimetric) [2]: 42.1 kcal/mol and 40.4 kcal/mol and 39 kcal/mol
unfolding enthalpy (calorimetric) (pH 3, glycine 20 mM): 34.4 kcal/mol and 32 kcal/mol
unfolding free energy [3]: 3.78 kcal/mol
unfolding free energy (pH 4, Sodium acetate 20 mM): 3.59 kcal/mol
Tm [3]: 59.8 °C and 57.8 °C and 57.2 °C
unfolding enthalpy (calorimetric) [3]: 51.1 kcal/mol and 50 kcal/mol and 49.7 kcal/mol
Tm (pH 4, Sodium acetate 20 mM): 58.2 °C and 53.6 °C
unfolding enthalpy (calorimetric) (pH 4, Sodium acetate 20 mM): 50 kcal/mol and 45.6 kcal/mol and 44.2 kcal/mol
unfolding free energy [4]: 4.33 kcal/mol
unfolding free energy (pH 4.5, Sodium acetate 20 mM): 4.4 kcal/mol
Tm [4]: 63.7 °C and 63.5 °C and 60.2 °C
unfolding enthalpy (calorimetric) [4]: 54 kcal/mol and 54.7 kcal/mol and 52.1 kcal/mol
unfolding enthalpy (calorimetric) (pH 4.5, Sodium acetate 20 mM): 53.1 kcal/mol and 46.4 kcal/mol
unfolding free energy (pH 7, PIPES 20 mM, NaCl 200 mM): 5.33 kcal/mol
unfolding free energy (pH 7, PIPES 20 mM): 5.35 kcal/mol
Tm (pH 7, PIPES 20 mM, NaCl 200 mM): 70.7 °C and 66.6 °C and 67.6 °C
unfolding enthalpy (calorimetric) (pH 7, PIPES 20 mM, NaCl 200 mM): 58.6 kcal/mol and 57.6 kcal/mol and 58.1 kcal/mol
Tm (pH 7, PIPES 20 mM): 70.7 °C and 67.2 °C
unfolding enthalpy (calorimetric) (pH 7, PIPES 20 mM): 59 kcal/mol and 54 kcal/mol
